Laboratory results as given in doi:10.1101/2022.02.24.481830 (bioRxiv, 2022).

Key:
H3 COBRA TJ5 HA protein = H3 COBRA TJ5 HA protein (Influenza A virus H3, synthetic …)
H3 COBRA J4 HA protein = H3 COBRA J4 HA protein (Influenza A virus H3, synthetic …)
H3 COBRA NG2 HA protein = H3 COBRA NG2 HA protein (Influenza A virus H3, synthetic …)

Measured: binding result

B1: TJ5-16 (antibody, V domains shown)
VH: EVQLVQSGAEVKKPGASVKVSCKASGYTFTGYYIYWVRQAPGQGLEWMGWINPNGGGTNYAQKFQGRVTMTRDTSITTAYMELSRLRSDDSAVYYCAARAGPGTQDAQTIDFWGQGTLVTVSS
VL: SYELTQPPSVSVSPGQTARITCSGDALPKQYGYWYQQKPGQAPVLVIYKDSERPSGIPERFSGSSSGTTVTLTISGVQAEDEADYYCQSADSSGSYWVFGGGTKLT
binds: all assays above
